Test: label from the status in PepcDB records
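Further: failed if final PepcDB status was selected cloned or expressed and not failed if soluble or beyond.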

| Sequence | protein production |
| --- | --- |
| MKKTLIALMLGTISFTTFANDYLPSGGYETLETRSGQLTFENGFEHGVPTNKTSQKLFDELDYQRAVQGYIWATPIVSFYKWKNDHYQTWGTENGQLVYQAGYESKLGGLTYNTSTPYLIGYMNLNNGPIVINLPDTQLRGAVHNMWQIGKEQMTKPGKYVIYKAGDVAPKVKGATLIAMDTNDFFFGVRLMNKDAKVRSTMMNSIQKGITDINGNQLTNKGIYHVKRGIDHKQPRGMEFWEVVNQAIQANPVQERDRMMMDMLRPLGIEKGKPFIPTPKQQSLLKEAAIVGEAMTKNIDFNKTGRLDHAEYGPKGNPWEIATASTPNQDRNNGMDLDGRAAWFYEAVTNDIAMHGMDNGGWGQVYLDNYYSGEKDHGLDGGKHYTLTIKNPNTYADLFWTITVYNVENRAIIENDLGRADVGSNIKGSVYNKDGSITLHFSPKKPKGVAEANWVQTNEKEGWFVYFRAYSPKKAFVDEEPKTLLPNFEEVK | failed |
| MKKTRRILLGLALIIGLSVGAGCRSTASKSKTANASQSATTRTVTDMAGTKVKIPTKVTRVADLWHANNQVVLLLGGQKKLVATTQMIKQSPWFKTIDPGISRVTAPFAGDDLQTEELLKAKPDVVIAADTAQVKQARKAKIPTINAMYQTFAGLRQSVNLTAQVLGGTAPKIAKAYQKTLTTNLNDVKNRLKDVTFKPKVLHFVNATNLNQVDGTGTIVNEWIKAAGGQNALKQKGNMISVTTETLAKSDPDVIIVGSATTAEARAALKKNAVLSKLTAVKKNRVYGNPQGTFPWDRYSAEEALQVLWAAKKLHPDQFQDLNMVAKTKAFYQQFYHYQLSTAQANRLLNGASSPK | failed |
| MKKVCLSLLMGLMVQMTFGQTLEKMQWFNEPEQWEIKNNVLSMSVTPQSDYWRISHYGFTVDDAPFYYATYGGEFEAKVKVVGEYKERFDQAGLMLRIDHENYIKAGIEFVDGKFNLSTVVTHKTSDWSVITLDKTVPYIWIKAVRRLDAVEIFYSFDDKTYTLMRNAWLQDHIPVKVGLMAACPDGSGFNAKFEYFQVKHLPDQRRVEWLKKNAELEHHHHHH | failed |
| MKKVIGAATATVFGLGAFTTTATAETIVTADVLNVREKPTTESKVVEKVKNGEELKVINTEDGWSKIELNGKEVFVSSEFTKDIYHVTADLLNVRSESNTESKILGRLKKDDVIESTNQVKDGWLQFEYKGKTAYVNVSFLSSKAPIEKKADEKTKQVAKVQKSVKAKEEAKTQKITKAKETIKPKEEVKVQEVAKPKEEVKVQEVAKPKEEVKVQEVAKPKEEVKVQEVVKPKEEVKVQEVVKPKEEVKVQEVAKAKEEAKVQEIAKAKEEAKAQEIAKAKEEAKAQEIAKAKEEAKAQEIAKAKEEAKAQEIAKAKEEAKAQEIAKAKEEAKAQEIAKAKEEAKAQEIAKAKEEAKAQEIAKAKEEAKAQEIAKAKEEAKEREIAKAKEEAKAREIAKAKEEEKAREALKAKEESKNNVQSAKRELTVVATAYTADPSENGTYGGRVLTAMGHDLTANPNMRIIAVDPKVIPLGSKVWVEGYGEAIAGDTGSAIKGNRIDVLMGSKSKAMNWGRQTVKVKILLEHHHHHH | failed |
| MKKWFPALLFSLCVSGESSAWNHNIVFYSLGNVNSYQGGNVVITQRPQFITSWRPGIATVTWNQCNGPEFADGSWAYYREYIAWVVFPKKVMTQNGYPLFIEVHNKGSWSEENTGDNDSYFFLKGYKWDERAFDAGNLCQKPGETTRLTEKFDDIIFKVALPADLPLGDYSVTIPYTSGIQRHFASYLGARFKIPYNVAKTLPRENEMLFLFKNIGGCRPSAQSLEIKHGDLSINSANNHYAAQTLSVSCDVPANIRFMLLRNTTPTYSHGKKFSVGLGHGWDSIVSVNGVDTGETTMRWYKAGTQNLTIGSRLYGESSKIQPGVLSGSATLLMILP | failed |
| MKLAKLIPKRFFIRSKDRSTVSKSPTAFSFGSASSSSGQDCKNSGGDGGGGSVTPTSILPEVPSPYSYVEILQAFKLIDRDNDGAVSRHDLESLLSRLGPDPLTEEEINVMLKEVDCDGDGTIRLEELASRVVSLDPARDSTELKETFEFFDADRDGLISADELLRVFSTIGDERCTLDDCKRMIADVDEDGDGFVCFTEFSRMMDLQR | failed |
| MKLALITDTSAYLPEAIENHEDVYVLDIPIIIDGKTYIEGQNLTLDQYYDKLAASKELPKTSQPSLAELDDLLCQLEKEGYTHVLGLFIAAGISGFWQNIQFLIEEHPNLTIAFPDTKITSAPQGNLVRNALMCSREGMDFDVIVNKIQSQIEKIEGFIVVNDLNHLVKGGRLSNGSAIIGNLLSIKPVLHFNEEGKIVVYEKVRTEKKALKRLAEIVKEMTADGEYDIAIIHSRAQDKAEQLYNLLAKAGLKDDLEIVSFGGVIATHLGEGAVAFGITPKN | not failed |
| MKLDDLNLFRLVVENGSYTATSRKTMIPVATITRRIQALEDSVNLRLLNRHARKLSLTEAGERFYHECSPLLQRLTSTAEEITDDCRGASGKIKISAPYNLTKRMMMPMFNDFMKKYPDINIELTTENNADQLDPTEWDVIFRVGPQRDSSLIARKIGEVKDILVASQDYLAANPAPNHAEELSNHSLLKGYPLIKWTLINSKGESVVNVERGRFQANALNVVRSACSEGLGITLMPDVMIKEYIESGELLRVLPDWSANPRDIYMLYNHKDHLPEKVRLFIDFVIAYNIH | failed |
| MKLDWNGIDTVLLDMDGTLLDRHFDDHFWLEHVPKRYAAQNGIPLDEAKKLLYALFRSQERTLNWTDLDYWSERLGLDIPVLKQEIDHLIAVHPGVVEFLVFLRRHGKQAWLVTNAHGKTLSLKMRKTRLGPYFTGIISAHDLGLPKEDVRFWEKLQERVPYEPSRTLLGEDSETNLGTAEEYGIAHLIYVSRYSSTVTPTASDRYASIHYFTQLIPAAHTDET | failed |
| MKLEIGYNHPFEIRKERYESDHVCNFSVLYISDLHLTVFSKDICTRLSKCIQELNPTIIILGGDYIDCRNGWDYLSTFFKFLSARKNVFSIAGNHDYFYGIDEIKKLIESNNIHWLENQSAVVNIQEYNILLTGNNETQSSIPADFNILCLHKPVSLDAFKIPYHIAFAGHLHGCQCVFWQNENGLYPGRFFYTFNFLRRQVKNCLYLISKGLGDTLPIRFNCKKDIIFVEIKNNSNKLEHHHHHH | failed |
| MKLERILPFSKTLIKQHITPESIVVDATCGNGNDTLFLAEQVPEGHVYGFDIQDLALENTRDKVKDFNHVSLIKDGHENIEHHINDAHKGHIDAAIFNLGYLPKGDKSIVTKPDTTIQAINSLLSLMSIEGIIVLVIYHGHSEGQIEKHALLDYLSTLDQKHAQVLQYQFLNQRNHAPFICAIEKIS | failed |
| MKLHLTNLYGMAGDSTVILAQNAVQKIASQLGFREVGIYFYNIASDSPSEMNKRLDGIMASISIGDILVFQSPTWNGFEFDRLLFDKLKDMQVKIICFIHDVVPLMFDSNYYLMKDYLYMYNLSDVLIVPSERMKTRLMEEGLTTKKILVQGMWDHPHDLSLYTPAFKKELFFAGSLERFPDLQNWSQDTPLRVFSNKGEASSSARSLSIEGWKKDEELLLELSKGGFGLVWGTHQNEGESNQYYTLNISHKVSTYLTAGIPVIVPSSLSTAKFIVDQGLGFMADSLEEVHEIVDKMNLQEYQEMTNRIKTFSYLLKEGYFTKKLLVDAIYHLGID | failed |
| MKLIKFVRNVVLFILTAIFLAFMLLVSYCMPHYSAAVISGVEVKRMNENENTPNNKEVKTLARDVYFVQTYDPKDQKSVTVYRNEDTRFSFPFYFKFNSADISALAQSLINQQVEVKYYGWRINLFNMFPNVIFLKPLKESTDISKPIFSWILYALLLMGFFISARSVCTLFKSKAH | failed |
| MKLIKTIDAVGQVLCHDITQIIPGEFKGRKFKKGHIVKEEDIPVLLSLGKDNLYVWEKSEGMVHENEGALFLKELTAGENLDFSEIKEGKIDFIAACDGLLKIDVDALFDLNCVGEIMMATLHNNFIVNKGLKVAGTRVIPLVIDEKKLEDAKKVVGNRKIVNVVPFKPKKVGIVTTGNEVFYSRIVDKFGPVIEEKVKGFGCEVIGQTICPDDKEIIKSAIKEFISQGAELICCTGGMSVDPDDVTPTAIKETGADLVTYGSPILPGAMFLLAYYGEVPIMGIPGCAMYHKTTVFDIVLSRVLIDEKLDKYDIARYGHGGLCMNCDVCTYPACNFAKILEHHHHHH | failed |
| MKLIQMSDHIYKLNIQTTVGIPIQINTWFIVNDNDVYIIDTGMDDYAELQITIAKSLGNPKGIFLTHGHLDHINGAKRISEALKIPIFTYKNELPYINGELPYPNKTHTENTGVQYIVKPLETNTNLPFNYYLTPGHAPGHVIYFHNQDKILICGDLFISDAQHLHIPIKKFTYNMTENIKSGQIIDNLCPKLITTSHGDDLYYSDDIYSIYKFKYEELEHHHHHH | failed |
| MKLIRLIASPILMYVLAGVYALVLAIATFVENSSGPAVAREYFYYAPWFILLQLLQAVNLLAMFLQGGYFKRISKGSLIFHGALVFIWLGAAVTHYAGVTGIMHIREGETVDRMMRDEGAGMGNASLPFSVTLDDFRLKRYPGSHSPMSYESDLVIKKENEAPLQATVRMNKVIEVDGYRLFQSSFDPDEQGTVLSVSYDRPGMQITYIGYFLLFAGFVLTLFSKKSRFGRLRRELGEMKKNAPFCLLLFLGLSGALGTQASYAQETLSSSQLPCIPAPHARKFGSLVLLNPNGRLEPVNSYTSAILRKLYGADKLNSINSDQFFLNLLAFPDEWGGYPFIKVDNKDILQRFGRDGKYIAWQDVFDADGNYVLTDEVNAIYAKSASERKRMDSDLLKLDESVNIVYRIMQHQLLPLFPDENDVQGKWYSAGDEQTVFHDKDSLFVSKIMDWYIYELGNGVRTNNWKEADKIVDMMHIFQQAKSKTPAIDNQRVKAELLYNQLNLFFWCRLAYLILGGILLFIACGEIIADFKWGSRLSSILIVLLIAAFLAHTTGVLLRWYISERAPWANAYESMICTSWLLVGGGLLFARRFRILPALAGLLGGIMLFVAGLNHLNPEITPLVPVLQSYWLMSHVAIIMIGYVFFALCALTGLFNLILMNLLSATNRVKLLFRIREFTLLNEMAMILGLFFMTAGTFLGAIWANVSWGRYWGWDPKETWALISIVVYALVLHIRFIPLLKGKTTWCYNLLSVVSILSIIMTWFGVNYYLSGLHSYGKTEGGDLLLWIWGAGLCVVLALALFARRRLKKYS | failed |
| MKLISQAVKNYLPELSLRQKQTNNIIFITFWSQFSVYALNTVLVLFLTRPLIAQGLGYSQAKAYAFIGVTQATGYLMPILGGYMADNIVGVRRSILLGSIMLACAYLLVMLSGYTISSLGDQLFIIAFAFIPATNSLLMGTASSMVSHIYSDDAIKAKSAMTYYYMAINVGALLATMIAPVLLESRYGPLSVLTLTFIGKSIAALNFAKRYSIYDSVIWGMDKSKFSNQGLLRLVAYIAAIYSLTLYAYTHVYIASTLIGAGCAIGILWFLIKTIMLKGETRSKQMIAVLLIIEAIVFFIIYNQMNSTLVLFAENNSDLSFLWFKISPAQYQMLNPLLILLIGSQLPRFYRFFSRFTIPYQFAAGTILSGIALLVMAFAAQNAINGLVNGNYIALTYILISIAELWVSAIGLSMIGLYCDARAIAFAMGVWYLASSMSNAISGRIAGWVAIPENINSALESLPYYKNYYLIMGISALGLGILMYFVAYYLHKIMKRRGIELA | failed |
| MKLKKEKKMAEFTFEIEEHLLTLSENEKGWTKEINRVSFNGAPAKFDIRAWSPDHTKMGKGITLSNEEFQTMVDAFKGNLEHHHHHH | not failed |
| MKLLENSRFEALSSQLCVETGDAQIIGRIESYSCKMAGDDKHMFKQFCQEGEPHVLEALSPPQSSSAPSPNLLGKSGEDAENPLSDKCCRKTLFYLITTLNESFRPDYDFSAARAHEFSREPSANWVANSVNSSLYSAVGEQFNTLGPELWTAIDQEINLQGCDIYSYNPDLDSDPFGEEGSLWSFNYFFYNKKLKRILFFTCRSVSVLSSYGRSGLDNELDMELDDEEELDGFMEDRIPRALCV | failed |
